Data from patent US20200199250A1 (KYMAB, published 2020).

Biological target: human factor X (human, UniProt P00742 41-179; P00742 183-488)
Assay: cell-based or functional assay

human factor X, sequence (P00742 41-179, chain 1 of 2): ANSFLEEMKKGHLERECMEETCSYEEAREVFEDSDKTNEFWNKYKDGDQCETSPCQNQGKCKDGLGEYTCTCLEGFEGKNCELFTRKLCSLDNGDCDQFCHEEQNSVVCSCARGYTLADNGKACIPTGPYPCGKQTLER
human factor X, sequence (P00742 183-488, chain 2 of 2): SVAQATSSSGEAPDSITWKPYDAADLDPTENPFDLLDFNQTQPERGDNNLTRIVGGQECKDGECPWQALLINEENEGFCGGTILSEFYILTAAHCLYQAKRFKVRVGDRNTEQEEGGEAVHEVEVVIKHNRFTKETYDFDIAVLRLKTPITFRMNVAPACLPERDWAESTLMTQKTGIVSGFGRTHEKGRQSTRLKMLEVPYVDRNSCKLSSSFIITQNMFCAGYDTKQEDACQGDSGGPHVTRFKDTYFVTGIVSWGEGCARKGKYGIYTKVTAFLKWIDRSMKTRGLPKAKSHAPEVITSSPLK

B1: IXAX-1280.0999.0325 (bispecific antibody, human IgG4 S228P, lambda)
heavy 1: EVQLVESGGGFVQPGGSLRLSCAVSGFRFNSYWMSWVRQAPGKGLEWVANINQDGSRKFYVASVKGRFTMSRDNAKKSVYVQMNSLRAEDTAVYYCAREGYSSIKYYGMDVWGQGTTVTVSSASTKGPSVFPLAPCSRSTSESTAALGCLVKDYFPEPVTVSWNSGALTSGVHTFPAVLQSSGLYSLSSVVTVPSSSLGTQTYTCNVDHKPSNTKVDKRVESKYGPPCPPCPAPEFLGGPSVFLFPPKPKDTLMISRTPEVTCVVVDVSQEDPEVQFNWYVDGVEVHNAKTKPREEQYNSTYRVVSVLTVLHQDWLNGKEYKCKVSNKGLPSSIEKTISKAKGQPREPQVYTLPPSQEEMTKNQVSLTCLVKGFYPSDIAVEWESNGQPENNYKTTPPVLDSDGSFFLYSKLTVDKSRWQEGNVFSCSVMHEALHNHYTQESLSLSP
heavy 2: QVQLIQSGAKVKKPGASVKVSCKASRYKFTSYYMHWVRQAPGQGLEWMGIINPKSGSTSYAQKFQGRVTMTRDTSTSTVYMELSSLRSEDTAVYYCARDGYGSFSRLIQLWGQGTLVTVSSASTKGPSVFPLAPCSRSTSESTAALGCLVKDYFPEPVTVSWNSGALTSGVHTFPAVLQSSGLYSLSSVVTVPSSSLGTQTYTCNVDHKPSNTKVDKRVESKYGPPCPPCPAPEFLGGPSVFLFPPKPKDTLMISRTPEVTCVVVDVSQEDPEVQFNWYVDGVEVHNAKTKPREEQYNSTYRVVSVLTVLHQDWLNGKEYKCKVSNKGLPSSIEKTISKAKGQPREPQVYTLPPSQKEMTKNQVSLTCLVKGFYPSDIAVEWESNGQPENNYKTTPPVLDSDGSFFLYSKLTVDKSRWQEGNVFSCSVMHEALHNHYTQKSLSLSP
light: YVLTQPPSVSVAPGETARITCGGDNIGRKSVYWYQQKSGQAPVLVIYYDSDRPSGIPERFSGSNSGNTATLTISRVEAGDEADYYCQVWDGSSDHWVFGGGTKLTVLGQPKAAPSVTLFPPSSEELQANKATLVCLISDFYPGAVTVAWKADSSPVKAGVETTTPSKQSNNKYAASSYLSLTPEQWKSHKSYSCQVTHEGSTVEKTVAPTECS
EC50, Hyphen chromogenic FVIII mimetic activity assay (FXa generation with added FX and FIXa in diluted FVIII deficient plasma; OD405): 5.92 nM
